# Reference: patent publication US20170240604A1 (Harvard, published 2017)
# No end group written: not given here. fluorescein maleimide = fluorescein maleimide (label on cysteine)
# B1: 225-3 (peptide)
# peptide: GCGGPRRPRRPRYPGDDASIEDLHEYWARLWNYLYAVA
# modifications: also: Cys2 labelled with fluorescein-maleimide or biotin-PEG2-maleimide, or unlabelled, depending on assay, non-covalent head-to-tail homodimer
# notes: Recombinant, TEV-cleaved
# How the values were obtained:
# [1] = molecular target: KRas (G12V)·GppNHp (human) (UniProt P01116); assay: fluorescence polarization; FITC-labeled peptide at fixed concentration, KRas(G12V) GppNHp titrated 0.5 to 5000 nM; one-site fit with Hill coefficient
# Rab25 (GppNHp-bound) [2] = molecular target: T1, Rab25 (GppNHp-bound) (UniProt P57735 1-213, limits assumed); assay: fluorescence polarization; FITC-labeled 225-3 at fixed concentration, protein titrated; one-site specific binding fit with Hill coefficient
# T1 sequence (looked up): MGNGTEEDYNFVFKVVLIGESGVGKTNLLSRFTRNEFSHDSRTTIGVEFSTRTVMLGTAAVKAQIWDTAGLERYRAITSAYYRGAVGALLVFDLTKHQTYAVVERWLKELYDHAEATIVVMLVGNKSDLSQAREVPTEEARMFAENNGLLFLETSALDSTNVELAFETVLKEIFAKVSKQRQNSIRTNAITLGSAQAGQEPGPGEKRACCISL
# RalA = molecular target: T2, RalA (UniProt P11233 1-178, limits assumed); assay: as above
# T2 construct: also called RalA protein
# T2 sequence: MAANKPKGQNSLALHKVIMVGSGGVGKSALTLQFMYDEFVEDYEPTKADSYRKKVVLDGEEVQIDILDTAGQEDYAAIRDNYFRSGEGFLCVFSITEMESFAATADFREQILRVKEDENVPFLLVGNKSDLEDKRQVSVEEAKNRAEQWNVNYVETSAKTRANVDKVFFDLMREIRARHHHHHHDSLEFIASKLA
# Rab25 (GppNHp-bound) [3] = molecular target: T1, Rab25 (GppNHp-bound); assay: fluorescence polarization, FITC-225-3 with GppNHp-bound Rab25; FP, GppNHp-bound Rab25; weak binding given as a number
# HRas·GppNHp = HRas·GppNHp (UniProt P01112 1-177, limits assumed); assay: fluorescence polarization, FITC-225-3 with GppNHp-bound HRas
# Rap1a (GppNHp-bound) = molecular target: T3, Rap1a (GppNHp-bound) (UniProt P62834 1-167, limits assumed); assay: fluorescence polarization, FITC-225-3 with GppNHp-bound Rap1a; FP, GppNHp-bound Rap1a
# T3 construct: also called Rapla (so in the source)
# T3 sequence: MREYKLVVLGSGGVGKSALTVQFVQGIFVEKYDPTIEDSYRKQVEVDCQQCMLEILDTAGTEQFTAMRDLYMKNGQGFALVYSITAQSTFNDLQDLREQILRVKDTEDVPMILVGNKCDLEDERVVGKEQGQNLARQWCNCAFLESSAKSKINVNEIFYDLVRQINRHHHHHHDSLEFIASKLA
# NRas·GppNHp = NRas·GppNHp (UniProt P01111); assay: fluorescence polarization, FITC-225-3 with GppNHp-bound NRas
# [4] = molecular target: K-Ras (mutation and nucleotide state not stated where it is used) (UniProt P01116); assay: fluorescence polarization
binder,measurement,setting,value
GC(fluorescein maleimide)GGPRRPARPRYPGDDASIEDLHEYWARLWNYLYAVA [225-3 R3A],Kd,[1],0.084 µM
GC(fluorescein maleimide)GGPRRPRRPAYPGDDASIEDLHEYWARLWNYLYAVA [225-3 R6A],Kd,[1],0.34 µM
GC(fluorescein maleimide)GGPRRPRRPRYPGDAASIEDLHEYWARLWNYLYAVA [225-3 D11A],Kd,[1],0.55 µM
GC(fluorescein maleimide)GGPRRPRRPRYPGDDASIEDLAEYWARLWNYLYAVA [225-3 H18A],Kd,[1],0.17 µM
GC(fluorescein maleimide)GGPRRPRRPRYPGDDASIEDLHEYWARLWNYLAAVA [225-3 Y29A],Kd,[1],0.2 µM
B1,Kd,Rab25 (GppNHp-bound) [2],> 5 µM
same,Kd,RalA,> 5 µM
same,Kd,Rab25 (GppNHp-bound) [3],~10 µM
same,Kd,HRas·GppNHp,0.045 µM
same,Kd,Rap1a (GppNHp-bound),3.5 µM
same,Kd,NRas·GppNHp,0.045 µM
"GRRPRRPRCPGDDASIEDLHEYWARLWNYLYAVA (also: FITC label, site not given here) [RDA3]",Kd,[4],0.006 µM
